The record followed here is patent US20160185837A1 (AstraZeneca / MedImmune, published 2016).

B1: IP400 (Fc fusion)
chain: YSEGTHTSDLSKLLEEEAVRLFIEWLLAGGGGGGSGGGGSGGGGSGGGGSATHTCPPC
B2: IP298 (Fc fusion)
chain: YSEGTFTSDVSSYLERQAIDEFIAWLLKGGAAAGGSGSTASSGSGSATGGGGAATHTCPPC
B3: IP304 (Fc fusion)
chain: B2 chain with D20E
B4: IP317 (Fc fusion)
chain: B2 chain with R16K
B5: IP088 (Fc fusion)
chain: YSEGTFTSDYSKLLEEEAVRLFIEWLVKGPAAAGGSGSTASSGSGSATGGGGAATHTCPPCPAPEF
B6: IP403 (Fc fusion)
chain: YSEGTHTSDLRILLEEEAVRLFIEKLLAGGGSGGGGSGGGGSGGGGSGGGGSGGGGSGGGGSGGGGSACPPC

Positions count from the first letter of the chain named. Where only a bound is given, the exact number is not on record here.

The target in one assay is T1, human GLP-1 receptor (human, UniProt P43220 24-463). As to the kind of experiment: cell-based or functional assay.
As to B1, the “cAMP EC50” value was 0.29 nM.

Consider B2, for which the “cAMP EC50” value came out at 0.18 nM.

Consider B3, for which the “cAMP EC50” value came to 0.16 nM.

In the case of B4, the “cAMP EC50” value is 0.13 nM.

With B5, the “cAMP EC50” value came out at 0.076 nM.

Regarding B6, the “cAMP EC50” value was 960 nM.

A further assay has as its target T2, mouse GIP receptor (mouse, UniProt Q0P543 19-460).
T2 sequence (looked up): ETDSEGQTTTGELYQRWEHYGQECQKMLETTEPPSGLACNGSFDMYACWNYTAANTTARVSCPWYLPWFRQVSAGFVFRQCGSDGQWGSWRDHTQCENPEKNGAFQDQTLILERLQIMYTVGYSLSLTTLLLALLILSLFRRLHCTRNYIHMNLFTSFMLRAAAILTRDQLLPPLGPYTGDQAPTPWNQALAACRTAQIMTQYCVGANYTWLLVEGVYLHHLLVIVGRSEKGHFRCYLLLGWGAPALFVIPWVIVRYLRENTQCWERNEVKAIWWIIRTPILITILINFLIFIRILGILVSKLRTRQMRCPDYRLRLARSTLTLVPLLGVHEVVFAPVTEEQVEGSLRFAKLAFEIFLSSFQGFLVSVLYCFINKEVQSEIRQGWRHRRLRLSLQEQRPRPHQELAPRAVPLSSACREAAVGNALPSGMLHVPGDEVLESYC
As to the kind of experiment: cell-based or functional assay.
For the molecule B1, the “cAMP EC50” value was determined as 380 nM.

Turning to B2, the “cAMP EC50” value was determined as 80 nM.

Take B3: the “cAMP EC50” value worked out at 16 nM.

Consider B4, for which the “cAMP EC50” value turned out to be 86 nM.

Consider B5, for which the “cAMP EC50” value is 86 nM.

Regarding B6, the “cAMP EC50” value amounted to 21 nM.

A further assay has as its target T3, rat GIP receptor (rat, UniProt P43219 19-455).
T3 sequence (looked up): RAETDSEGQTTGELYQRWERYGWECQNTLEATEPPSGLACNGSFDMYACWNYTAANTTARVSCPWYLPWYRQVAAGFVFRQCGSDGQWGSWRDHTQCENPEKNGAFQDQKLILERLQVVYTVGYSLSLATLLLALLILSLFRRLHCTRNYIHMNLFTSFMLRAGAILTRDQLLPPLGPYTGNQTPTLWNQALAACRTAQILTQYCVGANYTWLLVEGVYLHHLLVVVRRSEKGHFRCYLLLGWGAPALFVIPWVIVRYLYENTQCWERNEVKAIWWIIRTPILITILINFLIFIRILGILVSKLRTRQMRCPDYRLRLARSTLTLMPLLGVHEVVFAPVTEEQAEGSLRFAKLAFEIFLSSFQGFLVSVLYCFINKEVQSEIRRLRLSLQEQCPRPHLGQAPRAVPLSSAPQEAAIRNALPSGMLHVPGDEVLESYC
As to the kind of experiment: cell-based or functional assay.
In the case of B1, the “cAMP EC50” value was 0.087 nM.

For the molecule B2, the “cAMP EC50” value turned out to be 7.5 nM.

On to B3, for which the “cAMP EC50” value came to 4.6 nM.

As to B4, the “cAMP EC50” value is 5.3 nM.

For B5, the “cAMP EC50” value worked out at 0.1 nM.

B6: the “cAMP EC50” value came out at 0.02 nM.

The target of the next assay is T4, human GIP receptor (human, UniProt P48546 22-466).
T4 sequence (looked up): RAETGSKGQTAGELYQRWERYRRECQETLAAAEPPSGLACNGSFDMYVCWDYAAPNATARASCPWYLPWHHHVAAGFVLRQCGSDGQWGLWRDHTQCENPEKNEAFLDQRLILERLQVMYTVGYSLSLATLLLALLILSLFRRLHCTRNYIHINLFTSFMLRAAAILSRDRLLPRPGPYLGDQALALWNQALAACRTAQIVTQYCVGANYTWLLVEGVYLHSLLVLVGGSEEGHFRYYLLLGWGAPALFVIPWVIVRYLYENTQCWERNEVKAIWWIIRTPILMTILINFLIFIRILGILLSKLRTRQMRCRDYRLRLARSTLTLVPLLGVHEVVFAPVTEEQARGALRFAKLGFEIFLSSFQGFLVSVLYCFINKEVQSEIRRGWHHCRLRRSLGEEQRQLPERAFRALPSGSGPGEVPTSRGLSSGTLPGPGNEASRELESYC
As to the kind of experiment: cell-based or functional assay.
As to B1, the “cAMP EC50” value was determined as 0.002 nM.

In the case of B2, the “cAMP EC50” value was determined as 0.14 nM.

As for B3, the “cAMP EC50” value turned out to be 0.1 nM.

B4: the “cAMP EC50” value worked out at 0.11 nM.

As for B5, the “cAMP EC50” value worked out at 0.0078 nM.

With B6, the “cAMP EC50” value worked out at 16 nM.

Another assay deals with human glucagon receptor (human, UniProt P47871 26-477). As to the kind of experiment: cell-based or functional assay.
Turning to B1, the “cAMP EC50” value came to 1300 nM.

Take B2: the “cAMP EC50” value was more than 13100 nM.

Turning to B3, the “cAMP EC50” value worked out at 2600 nM.

Regarding B4, the “cAMP EC50” value is more than 5550 nM.

As for B5, the “cAMP EC50” value was determined as 460 nM.

In the case of B6, the “cAMP EC50” value worked out at 960 nM.

A further assay has as its target T5, rat GLP-1 receptor (rat, UniProt P32301 22-463).
T5 sequence (looked up): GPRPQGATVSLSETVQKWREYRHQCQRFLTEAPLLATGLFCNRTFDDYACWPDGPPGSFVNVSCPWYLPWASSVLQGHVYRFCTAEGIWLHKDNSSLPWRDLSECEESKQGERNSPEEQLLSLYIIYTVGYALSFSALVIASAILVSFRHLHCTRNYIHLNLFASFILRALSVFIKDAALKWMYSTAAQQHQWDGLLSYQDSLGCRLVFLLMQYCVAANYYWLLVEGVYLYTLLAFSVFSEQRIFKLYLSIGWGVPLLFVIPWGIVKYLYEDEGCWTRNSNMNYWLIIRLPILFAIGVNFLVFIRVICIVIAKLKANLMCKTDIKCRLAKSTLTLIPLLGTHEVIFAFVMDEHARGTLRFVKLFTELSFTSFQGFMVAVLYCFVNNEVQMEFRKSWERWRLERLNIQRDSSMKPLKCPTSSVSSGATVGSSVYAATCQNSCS
As to the kind of experiment: cell-based or functional assay.
Turning to B1, the “cAMP EC50” value was 0.19 nM.

With B2, the “cAMP EC50” value worked out at 0.015 nM.

For B3, the “cAMP EC50” value came out at 0.024 nM.

As to B4, the “cAMP EC50” value came out at 0.012 nM.

In the case of B5, the “cAMP EC50” value was found to be 0.033 nM.

Consider B6, for which the “cAMP EC50” value was 73 nM.

The target of a further assay is T6, mouse GLP-1 receptor (mouse, UniProt O35659 22-463).
T6 sequence (looked up): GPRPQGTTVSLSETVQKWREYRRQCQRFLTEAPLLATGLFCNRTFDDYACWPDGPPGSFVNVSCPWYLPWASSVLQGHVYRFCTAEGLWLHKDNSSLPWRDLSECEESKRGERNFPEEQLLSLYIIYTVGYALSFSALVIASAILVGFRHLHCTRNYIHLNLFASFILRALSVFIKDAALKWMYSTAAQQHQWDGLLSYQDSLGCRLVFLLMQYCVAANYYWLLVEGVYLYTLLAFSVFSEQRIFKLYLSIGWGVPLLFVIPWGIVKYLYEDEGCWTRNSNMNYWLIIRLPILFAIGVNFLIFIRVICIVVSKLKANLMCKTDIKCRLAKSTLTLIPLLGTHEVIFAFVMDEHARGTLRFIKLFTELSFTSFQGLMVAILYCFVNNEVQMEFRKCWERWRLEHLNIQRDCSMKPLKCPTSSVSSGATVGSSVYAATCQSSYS
As to the kind of experiment: cell-based or functional assay.
On to B1, for which the “cAMP EC50” value amounted to 31 nM.

B2: the “cAMP EC50” value turned out to be 0.36 nM.

Regarding B3, the “cAMP EC50” value is 0.69 nM.

For B4, the “cAMP EC50” value is 0.33 nM.

Regarding B5, the “cAMP EC50” value was 0.31 nM.

Consider B6, for which the “cAMP EC50” value was more than 1740 nM.

In another assay the target is cynomolgus monkey GLP-1 receptor (cynomolgus monkey, UniProt F8V479 24-463). As to the kind of experiment: cell-based or functional assay.
Consider B5, for which the “cAMP EC50, 4.2% cyno serum albumin” value was determined as 0.19 nM.

Another assay concerns the target cynomolgus monkey glucagon receptor (cynomolgus monkey). As to the kind of experiment: cell-based or functional assay.
As to B5, the “cAMP EC50, 4.2% cyno serum albumin” value is more than 1000 nM.

A further assay addresses T1, human GLP-1 receptor. As to the kind of experiment: cell-based or functional assay. The source holds these as a separate data set.
Take B5: the “cAMP EC50” value turned out to be 0.222 nM.

Another assay concerns the target T2, mouse GIP receptor. As to the kind of experiment: cell-based or functional assay. This is another data set of the same source.
For the molecule B5, the “cAMP EC50” value amounted to 137 nM.

Another assay concerns the target T4, human GIP receptor. As to the kind of experiment: cell-based or functional assay. This is another data set of the same source.
On to B5, for which the “cAMP EC50” value worked out at 0.016 nM.

The next assay deals with T5, rat GLP-1 receptor. As to the kind of experiment: cell-based or functional assay. This is another data set of the same source.
Turning to B5, the “cAMP EC50” value amounted to 0.038 nM.

The target of a further assay is T6, mouse GLP-1 receptor. As to the kind of experiment: cell-based or functional assay. This is another data set of the same source.
As for B5, the “cAMP EC50” value came out at 0.42 nM.
